# Key:
# Saccharomyces cerevisiae [1] = assay: protein stability index of tFT-peptide fusion in wild type (PSI (0-1 scale)); higher = more stable (slower turnover); conditions: genetic background: wild type
# Method: (§1)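 MPS profiling in S. cerevisiae of two library types built from selected 12-aa C-degron peptides (IN1, IN2, LN1, LN3, VN2, R1-R5, W1-W3, Atg1 and Rpa12 C-termini): saturation mutagenesis libraries and C-terminal +1 capping libraries (13 aa). Each peptide is fused to the C-terminus of a sfGFP-mCherry timer, after a GGGS linker. Cells are FACS-sorted into 8 mCherry/sfGFP bins and sequenced. PSI runs from 0 (unstable) to 1 (stable), measured once in wild type and in the das1Δ or doa10Δ background.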
# Saccharomyces cerevisiae [2] = assay: protein stability index of tFT-peptide fusion in deletion strain of DAS1 (PSI (0-1 scale)); higher = more stable (slower turnover)
# Method: as §1
# 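Wherever protein stability index of tFT-peptide fusion in deletion strain of DAS1 is given: PSI is a weighted mean of each variant's read distribution over the sorted stability bins, computed only for variants having over 10 reads in total.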
# 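Wherever protein stability index of tFT-peptide fusion in wild type is given: PSI derived as read-weighted mean over the 8 sorting bins, only variants exceeding 10 total reads kept, mCherry placed adjacent to the peptide and sfGFP distal.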
Sequence,protein stability index (Saccharomyces cerevisiae [1]),protein stability index (Saccharomyces cerevisiae [2])
KKHKKGQKQKIF,0.218,0.602
KKHKKGQKQKIG,0.226,0.591
KKHKKGQKQKII,0.12,0.632
KKHKKGQKQKINC,0.333,0.658
KKHKKGQKQKINF,0.652,0.669
KKHKKGQKQKINK,0.647,0.659
KKHKKGQKQKINM,0.638,0.662
KKHKKGQKQKINT,0.62,0.662
KKHKKGQKQKIW,0.637,0.558
KKHKKGQKQKYN,0.309,0.586
KKHKKGQTQKIN,0.0981,0.591
KKHKKGQVQKIN,0.152,0.649
KKHKKSQKQKIN,0.0607,0.584
KKHKLGQKQKIN,0.0725,0.58
KKIKKGQKQKIN,0.06,0.58
KKQKKGQKQKIN,0.177,0.566
KKWKKGQKQKIN,0.0754,0.561
KRHKKGQKQKIN,0.0723,0.634
KVVYLSCVACIN,0.0215,0.0792
LKILPQKMNHQN,0.417,0.686
LKILRIKMNHQN,0.19,0.66
LKILRNKMNHQN,0.269,0.703
LKILRQAMNHQN,0.23,0.658
LKILRQDMNHQN,0.647,0.643

Sequence,protein stability index (Saccharomyces cerevisiae [1]),protein stability index (Saccharomyces cerevisiae [2])
LKILRQGMNHQN,0.49,0.667
LKILRQHMNHQN,0.201,0.662
LKILRQKGNHQN,0.655,0.676
LKILRQKHNHQN,0.322,0.67
LKILRQKMNCQN,0.207,0.673
LKILRQKMNEQN,0.253,0.663
LKILRQKMNHAN,0.196,0.657
LKILRQKMNHIN,0.183,0.671
LKILRQKMNHQE,0.507,0.675
LKILRQKMNHQM,0.244,0.656
LKILRQKMNHQNR,0.677,0.673
LKILRQKMNHQNS,0.521,0.671
LKILRQKMNHQV,0.189,0.671
LKILRQKMNHQW,0.255,0.679
LKILRQKMNTQN,0.212,0.675
LKILRQKMRHQN,0.301,0.669
LKILRQKRNHQN,0.299,0.669
LKILRQKTNHQN,0.403,0.69
LKILRQRMNHQN,0.251,0.662
LKIPRQKMNHQN,0.484,0.679
LKISRQKMNHQN,0.323,0.677
LKRLRQKMNHQN,0.202,0.666
LKTLRQKMNHQN,0.205,0.672
LKWLRQKMNHQN,0.146,0.697

Sequence,protein stability index (Saccharomyces cerevisiae [1]),protein stability index (Saccharomyces cerevisiae [2])
LLILRQKMNHQN,0.155,0.673
LLIQPLPVQFLN,0.0661,0.624
LSVYLSCVACIN,0.0226,0.145
LVEYLSCVACIN,0.247,0.373
LVVDLSCVACIN,0.137,0.367
LVVLLSCVACIN,0.0235,0.0371
LVVYLICVACIN,0.0186,0.0584
LVVYLSCFACIN,0.0181,0.0433
LVVYLSCVACIF,0.0136,0.029
LVVYLSCVACII,0.0175,0.0431
LVVYLSCVACINQ,0.187,0.207
LVVYLSCVACIW,0.0175,0.0367
LVVYLSCVACQN,0.0434,0.097
LVVYLSCVAEIN,0.0146,0.0269
LVVYLSCVAMIN,0.0127,0.032
LVVYLSCVASIN,0.0148,0.0412
LVVYLSCVAWIN,0.0134,0.0302
LVVYLSCVTCIN,0.0223,0.0605
LVVYLSLVACIN,0.0258,0.0617
LVVYLSPVACIN,0.18,0.278
LVVYLSVVACIN,0.0255,0.0878
LVVYYSCVACIN,0.0106,0.0266
PDERNHLIKLLN,0.179,0.566
PDKLNHLIKLLN,0.133,0.609

Sequence,protein stability index (Saccharomyces cerevisiae [1]),protein stability index (Saccharomyces cerevisiae [2])
PDKRLHLIKLLN,0.126,0.629
PDKRNHLDKLLN,0.574,0.578
PDKRNHLIELLN,0.272,0.702
PDKRNHLIFLLN,0.116,0.687
PDKRNHLIHLLN,0.0992,0.586
PDKRNHLIKDLN,0.628,0.557
PDKRNHLIKLLNA,0.13,0.665
PDKRNHLIKLLNE,0.564,0.662
PDKRNHLIKLLNG,0.17,0.662
PDKRNHLIKLLNT,0.144,0.663
PDKRNHLIKLLNY,0.16,0.657
PDKRNHLIKLMN,0.119,0.605
PDKRNHLIKMLN,0.0821,0.598
PDKRNHLIKWLN,0.182,0.694
PDKRNHLPKLLN,0.148,0.612
PDKRNHLSKLLN,0.136,0.659
PDKRNHLVKLLN,0.133,0.585
PDKRNHLYKLLN,0.196,0.598
PDKRNPLIKLLN,0.42,0.581
PDKRVHLIKLLN,0.128,0.61
PEKRNHLIKLLN,0.101,0.608
PKILRQKMNHQN,0.194,0.678
PKLAASFWRVVG,0.172,0.691
PLLAASFWRVVG,0.157,0.678

Sequence,protein stability index (Saccharomyces cerevisiae [1]),protein stability index (Saccharomyces cerevisiae [2])
PMLAASFWRVVG,0.162,0.702
PSKAASFWRVVG,0.139,0.686
PSKRNHLIKLLN,0.145,0.61
PSLAAFFWRVVG,0.13,0.691
PSLAAMFWRVVG,0.137,0.691
PSLAARFWRVVG,0.14,0.679
PSLAASFDRVVG,0.644,0.684
PSLAASFGRVVG,0.661,0.672
PSLAASFKRVVG,0.683,0.677
PSLAASFWNVVG,0.331,0.69
PSLAASFWRFVG,0.137,0.707
PSLAASFWRNVG,0.17,0.7
PSLAASFWRVFG,0.367,0.699
PSLAASFWRVKG,0.549,0.664
PSLAASFWRVMG,0.144,0.664
PSLAASFWRVVE,0.684,0.696
PSLAASFWRVVGN,0.651,0.689
PSLAASFWRVVGV,0.674,0.685
PSLAASFWRVVL,0.617,0.724
PSLAASFWRVVM,0.282,0.743
PSLAASFWRVVQ,0.252,0.711

# — the supplement of paper PMC10724198
